This is an account of results in PMC10353998 (2023).

B1: eGFP-GGSG-Flag-RBM20-WT [human] / Transportin-3 [human (endogenous in HeLa)] (parent complex)
chain 1: MVLAAAMSQDADPSGPEQPDRVACSVPGARASPAPSGPRGMQQPPPPPQPPPPPQAGLPQIIQNAAKLLDKNPFSVSNPNPLLPSPASLQLAQLQAQLTLHRLKLAQTAVTNNTAAATVLNQVLSKVAMSQPLFNQLRHPSVITGPHGHAGVPQHAAAIPSTRFPSNAIAFSPPSQTRGPGPSMNLPNQPPSAMVMHPFTGVMPQTPGQPAVILGIGKTGPAPATAGFYEYGKASSGQTYGPETDGQPGFLPSSASTSGSVTYEGHYSHTGQDGQAAFSKDFYGPNSQGSHVASGFPAEQAGGLKSEVGPLLQGTNSQWESPHGFSGQSKPDLTAGPMWPPPHNQPYELYDPEEPTSDRTPPSFGGRLNNSKQGFIGAGRRAKEDQALLSVRPLQAHELNDFHGVAPLHLPHICSICDKKVFDLKDWELHVKGKLHAQKCLVFSENAGIRCILGSAEGTLCASPNSTAVYNPAGNEDYASNLGTSYVPIPARSFTQSSPTFPLASVGTTFAQRKGAGRVVHICNLPEGSCTENDVINLGLPFGKVTNYILMKSTNQAFLEMAYTEAAQAMVQYYQEKSAVINGEKLLIRMSKRYKELQLKKPGKAVAAIIQDIHSQRERDMFREADRYGPERPRSRSPVSRSLSPRSHTPSFTSCSSSHSPPGPSRADWGNGRDSWEHSPYARREEERDPAPWRDNGDDKRDRMDPWAHDRKHHPRQLDKAELDERPEGGRPHREKYPRSGSPNLPHSVSSYKSREDGYYRKEPKAKSDKYLKQQQDAPGRSRRKDEARLRESRHPHPDDSGKEDGLGPKVTRAPEGAKAKQNEKNKTKRTDRDQEGADDRKENTMAENEAGKEEQEGMEESPQSVGRQEKEAEFSDPENTRTKKEQDWESESEAEGESWYPTNMEELVTVDEVGEEEDFIVEPDIPELEEIVPIDQKDKICPETCLCVTTTLDLDLAQDFPKEGVKAVGNGAAEISLKSPRELPSASTSCPSDMDVEMPGLNLDAERKPAESETGLSLEDSDCYEKEAKGVESSDVHPAPTVQQMSSPKPAEERARQPSPFVDDCKTRGTPEDGACEGSPLEEKASPPIETDLQNQACQEVLTPENSRYVEMKSLEVRSPEYTEVELKQPLSLPSWEPEDVFSELSIPLGVEFVVPRTGFYCKLCGLFYTSEETAKMSHCRSAVHYRNLQKYLSQLAEEGLKETEGADSPRPEDSGIVPRFERKKL
chain 2: MEGAKPTLQLVYQAVQALYHDPDPSGKERASFWLGELQRSVHAWEISDQLLQIRQDVESCYFAAQTMKMKIQTSFYELPTDSHASLRDSLLTHIQNLKDLSPVIVTQLALAIADLALQMPSWKGCVQTLVEKYSNDVTSLPFLLEILTVLPEEVHSRSLRIGANRRTEIIEDLAFYSSTVVSLLMTCVEKAGTDEKMLMKVFRCLGSWFNLGVLDSNFMANNKLLALLFEVLQQDKTSSNLHEAASDCVCSALYAIENVETNLPLAMQLFQGVLTLETAYHMAVAREDLDKVLNYCRIFTELCETFLEKIVCTPGQGLGDLRTLELLLICAGHPQYEVVEISFNFWYRLGEHLYKTNDEVIHGIFKAYIQRLLHALARHCQLEPDHEGVPEETDDFGEFRMRVSDLVKDLIFLIGSMECFAQLYSTLKEGNPPWEVTEAVLFIMAAIAKSVDPENNPTLVEVLEGVVRLPETVHTAVRYTSIELVGEMSEVVDRNPQFLDPVLGYLMKGLCEKPLASAAAKAIHNICSVCRDHMAQHFNGLLEIARSLDSFLLSPEAAVGLLKGTALVLARLPLDKITECLSELCSVQVMALKKLLSQEPSNGISSDPTVFLDRLAVIFRHTNPIVENGQTHPCQKVIQEIWPVLSETLNKHRADNRIVERCCRCLRFAVRCVGKGSAALLQPLVTQMVNVYHVHQHSCFLYLGSILVDEYGMEEGCRQGLLDMLQALCIPTFQLLEQQNGLQNHPDTVDDLFRLATRFIQRSPVTLLRSQVVIPILQWAIASTTLDHRDANCSVMRFLRDLIHTGVANDHEEDFELRKELIGQVMNQLGQQLVSQLLHTCCFCLPPYTLPDVAEVLWEIMQVDRPTFCRWLENSLKGLPKETTVGAVTVTHKQLTDFHKQVTSAEECKQVCWALRDFTRLFR

Variants of B1 are the subject of the first assay. In words: co-immunoprecipitation, mass spectrometry; cytoplasmic fractions, HeLa; normalized to Neg; n = 3; parent: 1.7; read off a plot.
With chain 1 R634Q, the screen value is about 0.9.

In the case of chain 1 P633L, the screen value was about 1.5.

With chain 1 R634Q, chain 1 S635E, chain 1 S637E, the screen value is about 0.3.

Variants of B1 are the subject of the next assay. In words: co-immunoprecipitation, western blot quantification; HeLa cells expressing eGFP-RBM20, cytoplasmic fraction; n = 3; parent: 3.3; read off a plot. A general note: Immunoblotting shows a protein as a band on a membrane.
For the variant chain 1 R634Q, the response is about 1.6 relative HRP signal.

In the case of chain 1 P633L, the response is about 2.4 relative HRP signal.

chain 1 R634Q, chain 1 S635E, chain 1 S637E: the response was about 1.2 relative HRP signal.
